Experimental data published in IntAct's records for PubMed 26356530.

B1: Histone deacetylase 3 (Homo sapiens), O15379 (parent)
chain: MAKTVAYFYDPDVGNFHYGAGHPMKPHRLALTHSLVLHYGLYKKMIVFKPYQASQHDMCRFHSEDYIDFLQRVSPTNMQGFTKSLNAFNVGDDCPVFPGLFEFCSRYTGASLQGATQLNNKICDIAINWAGGLHHAKKFEASGFCYVNDIVIGILELLKYHPRVLYIDIDIHHGDGVQEAFYLTDRVMTVSFHKYGNYFFPGTGDMYEVGAESGRYYCLNVPLRDGIDDQSYKHLFQPVINQVVDFYQPTCIVLQCGADSLGCDRLGCFNLSIRGHGECVEYVKSFNIPLLVLGGGGYTVRNVARCWTYETSLLVEEAISEELPYSEYFEYFAPDFTLHPDVSTRIENQNSRQYLDQIRQTIFENLKMLNHAPSVQIHDVPADLLTYDRTDEADAEERGPEENYSRPEAPNEFYDGDHDNDKESDVEI
partner: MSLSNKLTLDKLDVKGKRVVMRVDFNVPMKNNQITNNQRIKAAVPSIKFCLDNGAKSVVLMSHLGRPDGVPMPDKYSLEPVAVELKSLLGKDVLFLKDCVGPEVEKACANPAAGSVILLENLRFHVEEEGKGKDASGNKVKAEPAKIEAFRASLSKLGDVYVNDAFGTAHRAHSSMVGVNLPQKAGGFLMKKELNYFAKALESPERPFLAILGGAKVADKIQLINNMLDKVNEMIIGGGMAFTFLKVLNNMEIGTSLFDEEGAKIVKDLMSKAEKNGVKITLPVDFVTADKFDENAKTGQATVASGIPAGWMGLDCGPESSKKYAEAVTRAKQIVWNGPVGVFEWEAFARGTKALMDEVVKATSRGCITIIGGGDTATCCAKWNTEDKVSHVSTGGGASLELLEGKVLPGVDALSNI

Variants of: B1
Settings: with pgk1_human PGK1, P00558

Row | Variant | effect of a mutation on the interaction
1 | MAKTVAYFYDPDVGNFHYGAGHPMKPHRLALTHSLVLHYGLYKKMIVFKPYQASQHDMCRFHSEDYIDFLQRVSPTNMQGFTKSLNAFNVGDDCPVFPGLFEFCSRYTGASLQGATQLNNKICDIAINWAGGLHHAKKFEASGFCYVNDIVIGILELLKYHPRVLYIDIDIHHGDGVQEAFYLTDRVMTVSFHKYGNYFFPGTGDMYEVGAESGRYYCLNVPLRDGIDDQSYKHLFQPVINQVVDFYQPTCIVLQCGADSLGCDRLGCFNLSIRGHGECVEYVKSFNIPLLVLGGGGYTVRNVARCWTYETSLLVEEAISEELPYSEYFEYFAPDFTLHPDVSTRIENQNSRQYLDQIRQTIFENLKMLNHAPSVQIHDVPADLLTYDRTDEADAEERGPEENYSRPEAPNEFYDGDHDNDKEADVEI [S424A] | decreasing interaction strength

Variants of: B1
Settings: with PGK1, P00558-1

Row | Variant | effect of a mutation on the interaction
2 | MAKTVAYFYDPDVGNFHYGAGHPMKPHRLALTHSLVLHYGLYKKMIVFKPYQASQHDMCRFHSEDYIDFLQRVSPTNMQGFTKSLNAFNVGDDCPVFPGLFEFCSRYTGASLQGATQLNNKICDIAINWAGGLHHAKKFEASGFCYVNDIVIGILELLKYHPRVLYIDIDIHHGDGVQEAFYLTDRVMTVSFHKYGNYFFPGTGDMYEVGAESGRYYCLNVPLRDGIDDQSYKHLFQPVINQVVDFYQPTCIVLQCGADSLGCDRLGCFNLSIRGHGECVEYVKSFNIPLLVLGGGGYTVRNVARCWTYETSLLVEEAISEELPYSEYFEYFAPDFTLHPDVSTRIENQNSRQYLDQIRQTIFENLKMLNHAPSVQIHDVPADLLTYDRTDEADAEERGPEENYSRPEAPNEFYDGDHDNDKEADVEI [S424A] | decreasing interaction strength
